Key:
[1] = target: T1, …; assay: SPOT length analysis, dot 19, HRP-S-protein detection
T1 sequence (peptide): RSSDFAKNFVQ

RSSDFA = target: T2, RSSDFA; assay: SPOT length analysis, dot 59, anti-histidine detection
T2 sequence (peptide): RSSDFA

SDFAKN = target: T3, SDFAKN; assay: SPOT length analysis, dot 61, anti-histidine detection
T3 sequence (peptide): SDFAKN

FAKNFVQT = target: T4, FAKNFVQT; assay: SPOT length analysis, dot 44, HRP-S-protein detection
T4 sequence (peptide): FAKNFVQT

NFVQ = target: T5, NFVQ; assay: SPOT length analysis, dot 89, HRP-S-protein detection
T5 sequence (peptide): NFVQ

[2] = target: T6, …; assay: SPOT length analysis, dot 18, anti-histidine detection
T6 sequence (peptide): FRSSDFAKNFV

KNFV [3] = target: T7, KNFV; assay: SPOT length analysis, dot 88, anti-histidine detection
T7 sequence (peptide): KNFV

[4] = target: T8, …; assay: SPOT length analysis, dot 8, HRP-S-protein detection
T8 sequence (peptide): IFRSSDFAKNFVQ

[5] = target: T9, sortilin 4-mer peptide RIFR (length analysis); assay: SPOT length analysis, dot 79, anti-histidine detection
T9 sequence (peptide, C-terminus anchored to the cellulose membrane through a beta-alanine linker): RIFR

[6] = target: T10, sortilin peptide … on SPOT membrane; assay: SPOT length analysis, dot 36, anti-histidine detection
T10 sequence (peptide, C-terminus anchored to the cellulose membrane through a beta-alanine linker): FAKNFVQTD

[7] = target: T11, …; assay: SPOT length analysis, dot 29, HRP-S-protein detection
T11 sequence (peptide): RIFRSSDFA

[8] = target: T12, …; assay: SPOT length analysis, dot 12, HRP-S-protein detection
T12 sequence (peptide): IFRSSDFAKNFV

KNFVQT = target: T13, KNFVQT; assay: SPOT length analysis, dot 65, anti-histidine detection
T13 sequence (peptide): KNFVQT

SDFA = target: T14, SDFA; assay: SPOT length analysis, dot 84, anti-histidine detection
T14 sequence (peptide): SDFA

KNFVQ [9] = target: T15, KNFVQ; assay: SPOT length analysis, dot 76, HRP-S-protein detection
T15 sequence (peptide): KNFVQ

[10] = target: T16, …; assay: SPOT length analysis, dot 26, anti-histidine detection
T16 sequence (peptide): SSDFAKNFVQ

FAKNFVQ = target: T17, FAKNFVQ; assay: SPOT length analysis, dot 53, HRP-S-protein detection
T17 sequence (peptide): FAKNFVQ

[11] = target: T18, …; assay: SPOT length analysis, dot 24, HRP-S-protein detection
T18 sequence (peptide): FRSSDFAKNF

[12] = target: T19, …; assay: SPOT length analysis, dot 2, anti-histidine detection
T19 sequence (peptide): RIFRSSDFAKNFVQT

SSDFAKN = target: T20, SSDFAKN; assay: SPOT length analysis, dot 50, anti-histidine detection
T20 sequence (peptide): SSDFAKN

[13] = target: T21, …; assay: SPOT length analysis, dot 14, anti-histidine detection
T21 sequence (peptide): RSSDFAKNFVQT

[14] = target: T22, …; assay: SPOT length analysis, dot 10, HRP-S-protein detection
T22 sequence (peptide): RSSDFAKNFVQTD

[15] = target: T23, …; assay: SPOT length analysis, dot 34, anti-histidine detection
T23 sequence (peptide): SDFAKNFVQ

FAKNFV = target: T24, FAKNFV; assay: SPOT length analysis, dot 63, anti-histidine detection
T24 sequence (peptide): FAKNFV

FRSSDFAK = target: T25, FRSSDFAK; assay: SPOT length analysis, dot 39, HRP-S-protein detection
T25 sequence (peptide): FRSSDFAK

AKNFVQ = target: T26, AKNFVQ; assay: SPOT length analysis, dot 64, anti-histidine detection
T26 sequence (peptide): AKNFVQ

RIFRS = target: T27, RIFRS; assay: SPOT length analysis, dot 67, anti-histidine detection
T27 sequence (peptide): RIFRS

[16] = target: T9, sortilin 4-mer peptide RIFR (length analysis); assay: SPOT length analysis, dot 79, HRP-S-protein detection
KNFVQ [17] = target: T15, KNFVQ; assay: SPOT length analysis, dot 76, anti-histidine detection
DFAKNF = target: T28, DFAKNF; assay: SPOT length analysis, dot 62, anti-histidine detection
T28 sequence (peptide): DFAKNF

VQTD = target: T29, VQTD; assay: SPOT length analysis, dot 91, HRP-S-protein detection
T29 sequence (peptide): VQTD

RSSDF = target: T30, RSSDF; assay: SPOT length analysis, dot 70, anti-histidine detection
T30 sequence (peptide): RSSDF

IFRSSDFA = target: T31, IFRSSDFA; assay: SPOT length analysis, dot 38, anti-histidine detection
T31 sequence (peptide): IFRSSDFA

RSSD = target: T32, RSSD; assay: SPOT length analysis, dot 82, anti-histidine detection
T32 sequence (peptide): RSSD

DFAK = target: T33, DFAK; assay: SPOT length analysis, dot 85, anti-histidine detection
T33 sequence (peptide): DFAK

[18] = target: T34, …; assay: SPOT length analysis, dot 15, anti-histidine detection
T34 sequence (peptide): SSDFAKNFVQTD

SDFAK = target: T35, SDFAK; assay: SPOT length analysis, dot 72, HRP-S-protein detection
T35 sequence (peptide): SDFAK

RIFRSS = target: T36, RIFRSS; assay: SPOT length analysis, dot 56, HRP-S-protein detection
T36 sequence (peptide): RIFRSS

[19] = target: T37, …; assay: SPOT length analysis, dot 28, HRP-S-protein detection
T37 sequence (peptide): DFAKNFVQTD

IFRSS [20] = target: T38, IFRSS; assay: SPOT length analysis, dot 68, HRP-S-protein detection
T38 sequence (peptide): IFRSS

[21] = target: T39, …; assay: SPOT length analysis, dot 20, anti-histidine detection
T39 sequence (peptide): SSDFAKNFVQT

KNFV [22] = target: T7, KNFV; assay: SPOT length analysis, dot 88, HRP-S-protein detection
[23] = target: T40, …; assay: SPOT length analysis, dot 17, HRP-S-protein detection
T40 sequence (peptide): IFRSSDFAKNF

SSDFA = target: T41, SSDFA; assay: SPOT length analysis, dot 71, HRP-S-protein detection
T41 sequence (peptide): SSDFA

IFRSS [24] = target: T38, IFRSS; assay: SPOT length analysis, dot 68, anti-histidine detection
[25] = target: T16, …; assay: SPOT length analysis, dot 26, HRP-S-protein detection
[26] = target: T42, …; assay: SPOT length analysis, dot 32, HRP-S-protein detection
T42 sequence (peptide): RSSDFAKNF

[27] = target: T43, …; assay: SPOT length analysis, dot 35, HRP-S-protein detection
T43 sequence (peptide): DFAKNFVQT

B1: recombinant his-S-tagged pro-domain of human BDNF (residues Ala1-Arg110), from pET-30 Xa/LIC, E. coli (protein, not shown: small tags and cut ends)
chain: APMKEANIRGQGGLAYPGVRTHGTLESVNGPKAGSGLTSLADTFEHVIEELLDEDQKVRPNEENNKDADLYTSRVMLSSQVPLEPPLLFLLEEYKNYLDAANMSMRVRR
For B1, the BLU Sprotein [1] was 22400 BLU, the BLU His (RSSDFA) was 18300 BLU and the BLU His (SDFAKN) was 15100 BLU. It also gave a BLU Sprotein (FAKNFVQT) of 23600 BLU, a BLU Sprotein (NFVQ) of 13400 BLU and a BLU His [2] of 19400 BLU. The BLU His (KNFV [3]) was 14900 BLU, the BLU Sprotein [4] was 126000 BLU and the BLU His [5] was 127000 BLU. The BLU His [6] was 30800 BLU, the BLU Sprotein [7] was 60900 BLU and the BLU Sprotein [8] was 199000 BLU. The BLU His (KNFVQT) was 15400 BLU, the BLU His (SDFA) was 14200 BLU and the BLU Sprotein (KNFVQ [9]) was 15700 BLU. It also gave a BLU His [10] of 17800 BLU, a BLU Sprotein (FAKNFVQ) of 20300 BLU and a BLU Sprotein [11] of 70400 BLU. It also gave a BLU His [12] of 113000 BLU, a BLU His (SSDFAKN) of 16700 BLU and a BLU His [13] of 24700 BLU. It also gave a BLU Sprotein [14] of 20700 BLU, a BLU His [15] of 18400 BLU and a BLU His (FAKNFV) of 142000 BLU. It also gave a BLU Sprotein (FRSSDFAK) of 19200 BLU, a BLU His (AKNFVQ) of 15600 BLU and a BLU His (RIFRS) of 115000 BLU. For the same binder, the BLU Sprotein [16] was 166000 BLU, the BLU His (KNFVQ [17]) was 18200 BLU and the BLU His (DFAKNF) was 15200 BLU. It also gave a BLU Sprotein (VQTD) of 13800 BLU, a BLU His (RSSDF) of 16100 BLU and a BLU His (IFRSSDFA) of 21400 BLU. The BLU His (RSSD) was 15000 BLU, the BLU His (DFAK) was 14400 BLU and the BLU His [18] was 19200 BLU. For the same binder, the BLU Sprotein (SDFAK) was 14800 BLU, the BLU Sprotein (RIFRSS) was 94400 BLU and the BLU Sprotein [19] was 19000 BLU. It also gave a BLU Sprotein (IFRSS [20]) of 38500 BLU, a BLU His [21] of 16700 BLU and a BLU Sprotein (KNFV [22]) of 13800 BLU. It also gave a BLU Sprotein [23] of 127000 BLU, a BLU Sprotein (SSDFA) of 14700 BLU and a BLU His (IFRSS [24]) of 25300 BLU. The BLU Sprotein [25] was 18500 BLU, the BLU Sprotein [26] was 19500 BLU and the BLU Sprotein [27] was 19500 BLU.
